Assay [1] has as its target T1, M Phase Phosphoprotein 8 chromodomain (UniProt Q99549 55-116).
T1 construct: M-phase phosphoprotein 8 (MPP8), chromodomain; also called MPP8 chromo; MPP8; source: E. coli BL21, purified (glutathione resin); not shown: GST, N-terminal, kept
T1 sequence: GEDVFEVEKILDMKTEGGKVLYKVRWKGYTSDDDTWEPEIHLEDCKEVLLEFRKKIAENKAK
Description: fluorescence polarisation; protein serially diluted with 10 nM FAM peptide; 25 mM HEPES pH 7.5, 100 mM NaCl, 0.05% NP-40; anisotropy fitted by specific binding with Hill slope. The settings on record: both partners purified. In general terms: In fluorescence polarisation assays a small probe gives low polarisation when free and higher when bound to something large.

Assay [2] has as its target T2, Chromodomain Y-like protein 2 chromodomain.
T2 construct: Chromodomain Y-like protein 2 (CDYL2), chromodomain; also called CDYL2 chromo; source: E. coli BL21, purified (glutathione resin); not shown: GST, N-terminal, kept
T2 sequence (Q8N8U2 whole entry, species assumed, looked up): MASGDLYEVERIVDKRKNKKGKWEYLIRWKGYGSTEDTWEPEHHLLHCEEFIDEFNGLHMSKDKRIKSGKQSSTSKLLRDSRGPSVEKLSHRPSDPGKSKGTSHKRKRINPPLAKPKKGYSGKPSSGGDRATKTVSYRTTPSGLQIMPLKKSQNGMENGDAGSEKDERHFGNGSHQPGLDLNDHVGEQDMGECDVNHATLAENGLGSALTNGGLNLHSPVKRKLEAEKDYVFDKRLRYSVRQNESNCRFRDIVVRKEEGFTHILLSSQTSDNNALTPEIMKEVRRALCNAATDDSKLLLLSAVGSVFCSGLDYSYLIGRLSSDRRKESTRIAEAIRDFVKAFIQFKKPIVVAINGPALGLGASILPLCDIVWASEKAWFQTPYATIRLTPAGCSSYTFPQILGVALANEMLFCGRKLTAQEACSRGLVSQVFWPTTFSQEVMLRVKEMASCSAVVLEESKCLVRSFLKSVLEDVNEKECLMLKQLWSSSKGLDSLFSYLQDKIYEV
Described as above. The settings on record: both partners purified.

Where no end group is shown, it is not given here. [ ]: non-standard residue; d: D form. The star is where a group is joined. 5FAM = O=C1OC2(c3ccc(O)cc3Oc3cc(O)ccc32)c2ccc(C(=O)*)cc21; Lys(Me3) = C[N+](C)(C)CCCC[C@H](N)C(=O)O

The values that follow come from PMC7160673, “A Degenerate Peptide Library Approach to Reveal Sequence Determinants of Methyllysine-Driven Protein Interactions” (Frontiers in Cell and Developmental Biology, 2020).

For the molecule 5FAM-WSK[Lys(Me3)]RRR (also: flanking glycines, number not given here) [FAM-WSK(Kme3)RRR peptide], in assay [1], the dissociation constant Kd was 6 µM.
In assay [2], 5FAM-WAY[Lys(Me3)]TGK (also: flanking glycines, number not given here) [FAM-WAY(Kme3)TGK peptide] yielded a Kd of 0.1 ± 0.0066 µM.

What is called Kd is the constant that tells how readily two partners part at equilibrium. Lower therefore signals higher affinity.
